Results: publication PMC9482650, “Quantitative fragmentomics allow affinity mapping of interactomes” (Nature Communications, 2022)

T1: PDZD7_3, Q9H5P4
T1 sequence (Q9H5P4 857-944, limits assumed, looked up): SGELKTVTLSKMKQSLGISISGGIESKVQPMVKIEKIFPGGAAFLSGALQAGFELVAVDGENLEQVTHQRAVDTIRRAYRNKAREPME

T2: SIPA1L2, Q9P2F8
T2 sequence (Q9P2F8 945-1036, limits assumed, looked up): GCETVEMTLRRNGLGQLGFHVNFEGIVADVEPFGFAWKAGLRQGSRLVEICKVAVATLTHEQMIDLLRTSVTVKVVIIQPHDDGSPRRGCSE

T3: SNTG2, Q9NY99
T3 sequence (Q9NY99 68-166, limits assumed, looked up): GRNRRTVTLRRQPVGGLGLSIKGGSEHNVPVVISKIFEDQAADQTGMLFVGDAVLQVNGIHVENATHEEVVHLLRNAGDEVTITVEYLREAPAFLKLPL

T4: DVL3, Q92997
T4 sequence (Q92997 244-331, limits assumed, looked up): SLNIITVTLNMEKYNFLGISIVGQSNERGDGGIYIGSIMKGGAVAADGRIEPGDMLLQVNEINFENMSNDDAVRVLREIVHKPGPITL

T5: RAPGEF6, Q8TEU7
T5 sequence (Q8TEU7 525-625, limits assumed, looked up): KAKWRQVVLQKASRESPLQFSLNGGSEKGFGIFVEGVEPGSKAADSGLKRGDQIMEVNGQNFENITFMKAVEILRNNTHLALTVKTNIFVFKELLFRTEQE

T6: HTRA4, P83105
T6 sequence (P83105 378-476, limits assumed, looked up): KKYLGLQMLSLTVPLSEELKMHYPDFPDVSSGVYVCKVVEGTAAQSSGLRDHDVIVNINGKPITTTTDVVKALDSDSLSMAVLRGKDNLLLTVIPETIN

T7: PTPN13_1, Q12923
T7 sequence (Q12923 1088-1188, limits assumed, looked up): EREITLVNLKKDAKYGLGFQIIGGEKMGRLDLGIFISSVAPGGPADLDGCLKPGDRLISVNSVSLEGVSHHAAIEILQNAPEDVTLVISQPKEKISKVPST

T8: APBA3_1, O96018
T8 sequence (O96018 389-490, limits assumed, looked up): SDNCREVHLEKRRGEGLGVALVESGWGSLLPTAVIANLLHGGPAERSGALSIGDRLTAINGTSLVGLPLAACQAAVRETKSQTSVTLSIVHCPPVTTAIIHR

T9: TIAM2, Q8IVF5
T9 sequence (Q8IVF5 885-986, limits assumed, looked up): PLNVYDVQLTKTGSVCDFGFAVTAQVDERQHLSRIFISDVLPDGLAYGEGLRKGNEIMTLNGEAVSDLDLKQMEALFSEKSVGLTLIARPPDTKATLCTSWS

T10: FRMPD1, Q5SYB0
T10 sequence (Q5SYB0 52-145, limits assumed, looked up): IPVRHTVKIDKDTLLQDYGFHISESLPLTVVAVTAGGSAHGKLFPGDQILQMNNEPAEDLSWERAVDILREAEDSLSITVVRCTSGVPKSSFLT

T11: RHPN1, Q8TCX5
T11 sequence (Q8TCX5 508-602, limits assumed, looked up): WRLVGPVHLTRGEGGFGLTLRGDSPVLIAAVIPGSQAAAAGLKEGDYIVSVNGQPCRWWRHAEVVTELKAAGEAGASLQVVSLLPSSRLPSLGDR


What was measured:
Assay in all cases: holdup assay
Parameters in all cases: key: below the threshold = too weak to quantify, mostly under pKd 3.1 to 4
Settings in all cases: plain residues with an end cap or a label only (N-terminal biotin on a linker: ado-ado)
[1] = target: T1, PDZD7_3, Q9H5P4
[2] = target: T2, SIPA1L2, Q9P2F8
[3] = target: FRMPD2_1, Q68DX3
FRMPD2_1, Q68DX3, sequence (Q68DX3 770-861): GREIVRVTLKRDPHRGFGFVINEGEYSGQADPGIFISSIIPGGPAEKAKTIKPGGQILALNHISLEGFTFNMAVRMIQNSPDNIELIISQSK

[4] = target: LNX1_2, Q8TBB1
LNX1_2, Q8TBB1, sequence (Q8TBB1 371-470): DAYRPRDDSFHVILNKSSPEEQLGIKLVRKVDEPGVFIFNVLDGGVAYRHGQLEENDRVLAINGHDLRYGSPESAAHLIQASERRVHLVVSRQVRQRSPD

[5] = target: T3, SNTG2, Q9NY99
[6] = target: T4, DVL3, Q92997
[7] = target: LNX1_1, Q8TBB1
LNX1_1, Q8TBB1, sequence (Q8TBB1 261-371): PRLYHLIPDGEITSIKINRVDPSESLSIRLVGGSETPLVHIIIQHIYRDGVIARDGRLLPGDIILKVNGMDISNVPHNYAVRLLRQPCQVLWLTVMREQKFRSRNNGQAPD

[8] = target: T5, RAPGEF6, Q8TEU7
[9] = target: Inadl_6, Q8NI35
Inadl_6, Q8NI35, sequence (Q8NI35 1058-1167): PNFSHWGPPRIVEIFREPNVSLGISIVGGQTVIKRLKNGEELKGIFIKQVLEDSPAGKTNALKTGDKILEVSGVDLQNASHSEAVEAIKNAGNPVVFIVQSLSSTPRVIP

[10] = target: GRASP, Q7Z6J2
GRASP, Q7Z6J2, sequence (Q7Z6J2 96-193): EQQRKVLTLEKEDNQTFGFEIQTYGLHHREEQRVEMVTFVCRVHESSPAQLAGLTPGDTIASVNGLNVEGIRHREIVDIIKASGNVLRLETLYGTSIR

[11] = target: T6, HTRA4, P83105
[12] = target: FRMPD2_2, Q68DX3
FRMPD2_2, Q68DX3, sequence (Q68DX3 944-1038): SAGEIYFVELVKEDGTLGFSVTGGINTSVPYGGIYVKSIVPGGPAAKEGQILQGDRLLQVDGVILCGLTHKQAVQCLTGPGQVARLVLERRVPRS

[13] = target: FRMPD2_3, Q68DX3
FRMPD2_3, Q68DX3, sequence (Q68DX3 1073-1166): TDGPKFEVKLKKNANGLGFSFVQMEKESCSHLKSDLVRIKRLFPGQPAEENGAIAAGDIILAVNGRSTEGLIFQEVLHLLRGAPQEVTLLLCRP

[14] = target: FRMPD4, Q14CM0
FRMPD4, Q14CM0, sequence (Q14CM0 67-160): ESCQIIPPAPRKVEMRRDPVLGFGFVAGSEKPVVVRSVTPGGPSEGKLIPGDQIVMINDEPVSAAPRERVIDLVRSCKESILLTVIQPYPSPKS

[15] = target: T7, PTPN13_1, Q12923
[16] = target: T8, APBA3_1, O96018
[17] = target: ARHGEF12, Q9NZN5-2
ARHGEF12, Q9NZN5-2, sequence (Q9NZN5 other isoform, or with tags, fused parts or gaps): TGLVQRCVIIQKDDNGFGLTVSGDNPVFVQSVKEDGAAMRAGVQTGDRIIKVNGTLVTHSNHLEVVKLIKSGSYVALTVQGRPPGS

[18] = target: T9, TIAM2, Q8IVF5
[19] = target: T10, FRMPD1, Q5SYB0
[20] = target: DLG2_3, Q15700
[21] = target: PDZRN4_1, Q6ZMN7
PDZRN4_1, Q6ZMN7, sequence (Q6ZMN7 213-318): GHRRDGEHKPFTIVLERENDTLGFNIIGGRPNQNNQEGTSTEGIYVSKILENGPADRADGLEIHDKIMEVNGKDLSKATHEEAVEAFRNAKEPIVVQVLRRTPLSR

[22] = target: NHERF4_4, Q86UT5
NHERF4_4, Q86UT5, sequence (Q86UT5 464-550): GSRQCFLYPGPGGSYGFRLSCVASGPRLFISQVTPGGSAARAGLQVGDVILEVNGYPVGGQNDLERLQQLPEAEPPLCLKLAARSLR

[23] = target: T11, RHPN1, Q8TCX5
[24] = target: MAGI2_6, Q86UL8
MAGI2_6, Q86UL8, sequence (Q86UL8 1141-1229): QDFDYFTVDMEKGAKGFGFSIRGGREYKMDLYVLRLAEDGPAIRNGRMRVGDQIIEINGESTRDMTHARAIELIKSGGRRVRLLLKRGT

[25] = target: MAGI2_3, Q86UL8
MAGI2_3, Q86UL8, sequence (Q86UL8 600-682): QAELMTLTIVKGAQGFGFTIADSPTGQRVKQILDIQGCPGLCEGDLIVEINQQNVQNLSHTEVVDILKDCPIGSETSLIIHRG

[26] = target: GRIP2_4, Q9C0E4
GRIP2_4, Q9C0E4, sequence (Q9C0E4 446-548): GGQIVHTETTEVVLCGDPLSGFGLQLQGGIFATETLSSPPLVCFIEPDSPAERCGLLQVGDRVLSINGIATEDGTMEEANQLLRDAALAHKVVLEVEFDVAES

[27] = target: Inadl_8, Q8NI35
Inadl_8, Q8NI35, sequence (Q8NI35 1425-1530): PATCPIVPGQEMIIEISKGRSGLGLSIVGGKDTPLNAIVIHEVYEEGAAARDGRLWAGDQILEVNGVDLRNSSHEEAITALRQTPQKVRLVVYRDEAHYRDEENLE

| Binder | pKd [1] | pKd [2] | pKd [3] | pKd [4] | pKd [5] | pKd [6] | pKd [7] | pKd [8] | pKd [9] | pKd [10] | pKd [11] | pKd [12] | pKd [13] | pKd [14] | pKd [15] | pKd [16] | pKd [17] | pKd [18] | pKd [19] | pKd [20] | also measured |
| --- | --- | --- | --- | --- | --- | --- | --- | --- | --- | --- | --- | --- | --- | --- | --- | --- | --- | --- | --- | --- | --- |
| KPGKGSETVV [FZD4, Q9ULV1] | 4.67 | below the threshold | 3.54 | 3.56 | 4.26 | below the threshold | below the threshold | below the threshold | 3.56 | below the threshold | below the threshold | below the threshold | below the threshold | below the threshold | below the threshold | below the threshold | below the threshold | below the threshold | below the threshold | 4.01 | pKd [21]: 3.51; pKd [22]: below the threshold; pKd [23]: 3.89; pKd [24]: below the threshold; pKd [25]: below the threshold; pKd [26]: below the threshold; pKd [27]: 3.49 |
| PYPTADHMLA [JUP, P14923] | below the threshold | below the threshold | below the threshold | below the threshold | below the threshold | below the threshold | below the threshold | below the threshold | below the threshold | below the threshold | below the threshold | below the threshold | below the threshold | below the threshold | below the threshold | below the threshold | below the threshold | 3.92 | below the threshold | 3.77 | pKd [21]: below the threshold; pKd [22]: below the threshold; pKd [23]: below the threshold; pKd [24]: below the threshold; pKd [25]: below the threshold; pKd [26]: below the threshold; pKd [27]: below the threshold |
| TGLWKHETTV [ADGRA3, Q8IWK6] | 4.99 | below the threshold | below the threshold | 3.8 | 4.25 | below the threshold | 3.78 | below the threshold | below the threshold | 3.55 | 4.15 | 3.76 | below the threshold | below the threshold | below the threshold | below the threshold | 4.06 | below the threshold | below the threshold | 4.86 | pKd [21]: 4.56; pKd [22]: 3.87; pKd [23]: 4.44; pKd [24]: 3.86; pKd [25]: 4.02; pKd [26]: below the threshold; pKd [27]: below the threshold |

Now from value to binder, other results behind:

| pKd [1] | pKd [2] | pKd [3] | pKd [4] | pKd [5] | pKd [6] | pKd [7] | pKd [8] | pKd [9] | pKd [10] | pKd [11] | pKd [12] | pKd [13] | pKd [14] | pKd [15] | pKd [16] | pKd [17] | pKd [18] | pKd [19] | pKd [20] | Binder | also measured |
| --- | --- | --- | --- | --- | --- | --- | --- | --- | --- | --- | --- | --- | --- | --- | --- | --- | --- | --- | --- | --- | --- |
| 4.91 | below the threshold | below the threshold | below the threshold | 3.98 | below the threshold | 4.19 | below the threshold | 4.14 | 3.93 | below the threshold | below the threshold | below the threshold | 3.68 | below the threshold | below the threshold | 5.5 | below the threshold | below the threshold | below the threshold | AAVENKVTDL [PLXNB1, O43157] | pKd [21]: below the threshold; pKd [22]: below the threshold; pKd [23]: 4.17; pKd [24]: 4.99; pKd [25]: below the threshold; pKd [26]: below the threshold; pKd [27]: below the threshold |
| below the threshold | below the threshold | 4.1 | 3.5 | below the threshold | below the threshold | below the threshold | 3.54 | below the threshold | below the threshold | below the threshold | 3.61 | 3.67 | 3.7 | below the threshold | below the threshold | below the threshold | 4.34 | below the threshold | 3.83 | QKAPTKEFYA [SDC2, P34741] | pKd [21]: below the threshold; pKd [22]: below the threshold; pKd [23]: below the threshold; pKd [24]: below the threshold; pKd [25]: below the threshold; pKd [26]: below the threshold; pKd [27]: below the threshold |
